Experimental data taken from article PMC11696677 (Communications Biology, 2025).
Substitutions are numbered along the chain they refer to. Names and notes keep the numbering of the source. Like-named read-outs stand apart in the source and are kept apart here.

T1: WT Kapβ2 (human, UniProt Q92973-2 1-890)
T1 sequence (looked up): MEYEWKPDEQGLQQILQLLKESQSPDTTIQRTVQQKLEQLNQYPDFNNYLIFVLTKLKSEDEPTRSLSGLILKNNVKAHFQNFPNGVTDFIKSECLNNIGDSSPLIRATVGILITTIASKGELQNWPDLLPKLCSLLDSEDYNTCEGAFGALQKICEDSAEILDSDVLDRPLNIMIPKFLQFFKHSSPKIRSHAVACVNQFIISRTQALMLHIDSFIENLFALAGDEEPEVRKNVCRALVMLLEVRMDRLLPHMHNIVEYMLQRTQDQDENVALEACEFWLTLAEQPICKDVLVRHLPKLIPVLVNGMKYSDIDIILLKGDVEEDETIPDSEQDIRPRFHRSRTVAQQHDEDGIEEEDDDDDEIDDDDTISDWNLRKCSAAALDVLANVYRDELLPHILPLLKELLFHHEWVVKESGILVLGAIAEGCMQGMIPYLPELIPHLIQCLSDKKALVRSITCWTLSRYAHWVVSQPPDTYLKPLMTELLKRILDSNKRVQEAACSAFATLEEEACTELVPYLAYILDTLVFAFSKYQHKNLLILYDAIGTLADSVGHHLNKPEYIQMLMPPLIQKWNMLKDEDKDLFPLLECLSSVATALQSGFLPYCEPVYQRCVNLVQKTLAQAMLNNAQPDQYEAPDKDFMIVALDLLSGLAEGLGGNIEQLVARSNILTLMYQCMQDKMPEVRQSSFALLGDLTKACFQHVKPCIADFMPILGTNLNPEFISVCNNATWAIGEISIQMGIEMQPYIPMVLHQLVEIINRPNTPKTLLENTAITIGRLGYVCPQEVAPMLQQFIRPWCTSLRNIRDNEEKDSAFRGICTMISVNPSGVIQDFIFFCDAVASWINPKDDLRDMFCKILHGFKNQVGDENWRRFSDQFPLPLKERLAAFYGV

T2: TAMRA-(GR)20 (TAMRA label (position not given))
T2 peptide: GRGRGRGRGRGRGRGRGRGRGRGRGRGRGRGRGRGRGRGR

T3: TAMRA-(PR)20 (TAMRA label (position not given))
T3 peptide: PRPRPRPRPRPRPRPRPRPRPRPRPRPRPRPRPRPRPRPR

B1: FUS-GFP (natural protein, UniProt P35637 1-526, looked up)
chain: MASNDYTQQATQSYGAYPTQPGQGYSQQSSQPYGQQSYSGYSQSTDTSGYGQSSYSSYGQSQNTGYGTQSTPQGYGSTGGYGSSQSSQSSYGQQSSYPGYGQQPAPSSTSGSYGSSSQSSSYGQPQSGSYSQQPSYGGQQQSYGQQQSYNPPQGYGQQNQYNSSSGGGGGGGGGGNYGQDQSSMSSGGGSGGGYGNQDQSGGGGSGGYGQQDRGGRGRGGSGGGGGGGGGGYNRSSGGYEPRGRGGGRGGRGGMGGSDRGGFNKFGGPRDQGSRHDSEQDNSDNNTIFVQGLGENVTIESVADYFKQIGIIKTNKKTGQPMINLYTDRETGKLKGEATVSFDDPPSAKAAIDWFDGKEFSGNPIKVSFATRRADFNRGGGNGRGGRGRGGPMGRGGYGGGGSGGGGRGGFPSGGGGGGGQQRAGDWKCPNPTCENMNFSWRNECNQCKAPKPDGPGGGPGGSHMGGNYGDDRRGGRGGYDRGGYRGRGGDRGGFRGGRGGGDRGGFGPGKMDSRGEHRQDRRERPY
B2: Kapβ2_(W460A:W730A) (receptor, human, UniProt Q92973-2 1-890, looked up)
chain: T1 sequence (looked up) with W460A, W730A

What was measured:
Experiment in all cases: fluorescence polarisation
WT Kapβ2 = biological target: T1, WT Kapβ2
Kapβ2_(W460A:W730A) = biological target: B2
TAMRA-(GR)20 [1] = biological target: T2, TAMRA-(GR)20
TAMRA-(PR)20 [2] = biological target: T3, TAMRA-(PR)20
TAMRA-(GR)20 [3] = biological target: T2, TAMRA-(GR)20
TAMRA-(PR)20 [4] = biological target: T3, TAMRA-(PR)20

Kd (WT Kapβ2) [nM] | Kd (Kapβ2_(W460A:W730A)) [nM] | affinity relative to that of FUS for Kapβ2_(W460A:W730A) (TAMRA-(GR)20 [1]) [times] | affinity relative to that of FUS for Kapβ2_(W460A:W730A) (TAMRA-(PR)20 [2]) [times] | affinity relative to that of FUS for Kapβ2_(W460A:W730A) (TAMRA-(GR)20 [3]) [times] | affinity relative to that of FUS for Kapβ2_(W460A:W730A) (TAMRA-(PR)20 [4]) [times] | Binder
39.6 ± 17.7 | 124 ± 58.5 | – | – | – | – | B1
– | – | ~3 | ~3 | ~1.5 | ~1.5 | B2
